Assay in all cases: pull-down
In one test the target is T1, 6xHis-AccC (Bacillus subtilis 168, UniProt P49787 1-450).
T1 sequence (looked up): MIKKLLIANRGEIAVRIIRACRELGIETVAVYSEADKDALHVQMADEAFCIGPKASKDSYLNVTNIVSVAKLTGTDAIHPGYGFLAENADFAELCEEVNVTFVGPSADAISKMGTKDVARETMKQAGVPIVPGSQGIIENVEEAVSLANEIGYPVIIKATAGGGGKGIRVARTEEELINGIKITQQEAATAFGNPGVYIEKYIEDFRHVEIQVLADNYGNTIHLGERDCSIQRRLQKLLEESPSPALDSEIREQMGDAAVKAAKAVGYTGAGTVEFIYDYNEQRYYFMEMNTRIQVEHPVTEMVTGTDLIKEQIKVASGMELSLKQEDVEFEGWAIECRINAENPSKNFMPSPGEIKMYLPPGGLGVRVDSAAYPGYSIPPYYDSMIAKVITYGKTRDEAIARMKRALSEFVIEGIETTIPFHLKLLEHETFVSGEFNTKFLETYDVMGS

The target in a further test is T2, Strep-tagged AccC (Bacillus subtilis 168, UniProt P49787 1-450).
T2 sequence (looked up): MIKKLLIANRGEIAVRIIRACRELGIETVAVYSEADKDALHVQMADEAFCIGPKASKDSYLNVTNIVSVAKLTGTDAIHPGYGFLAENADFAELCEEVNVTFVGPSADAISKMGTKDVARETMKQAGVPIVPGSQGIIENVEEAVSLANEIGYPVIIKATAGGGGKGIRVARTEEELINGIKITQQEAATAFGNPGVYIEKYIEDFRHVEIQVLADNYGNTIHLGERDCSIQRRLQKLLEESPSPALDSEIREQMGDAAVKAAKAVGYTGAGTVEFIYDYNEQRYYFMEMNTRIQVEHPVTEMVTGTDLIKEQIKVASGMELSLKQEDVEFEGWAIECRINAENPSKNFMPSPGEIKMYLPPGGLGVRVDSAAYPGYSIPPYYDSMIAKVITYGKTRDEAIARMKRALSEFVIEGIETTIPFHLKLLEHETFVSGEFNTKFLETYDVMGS

In a further test the target is T3, Strep-tagged AccB (Bacillus subtilis 168, UniProt P49786 1-159).
T3 sequence (looked up): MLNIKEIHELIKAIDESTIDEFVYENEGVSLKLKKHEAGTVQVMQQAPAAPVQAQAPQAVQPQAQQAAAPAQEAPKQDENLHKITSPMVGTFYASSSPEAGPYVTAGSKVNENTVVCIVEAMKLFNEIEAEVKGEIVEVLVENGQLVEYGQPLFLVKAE

B1: GST-tagged RfaA (natural protein, Bacillus subtilis 168, UniProt P54519 1-135, looked up)
chain: MKDNSLLKMDHEDTHLGKVEIAPEVIEVIAGIAASEVDGVAEMRGNFATGVVERFGKVNHGKGVKVDLADDGITIDVYCVVTFGVSIPKVAASVQENIRQTLLNMTSLSINEINIHIVGIQFDTKAQEVQIDEEM
On to B1, for which the binding result in the test with 6xHis-AccC was “binds”.

B2: 6xHis-SUMO-RfaA (natural protein, Bacillus subtilis 168, UniProt P54519 1-135, looked up)
chain: MKDNSLLKMDHEDTHLGKVEIAPEVIEVIAGIAASEVDGVAEMRGNFATGVVERFGKVNHGKGVKVDLADDGITIDVYCVVTFGVSIPKVAASVQENIRQTLLNMTSLSINEINIHIVGIQFDTKAQEVQIDEEM
For B2, the binding result in the test with Strep-tagged AccC and with Strep-tagged AccB was “binds” each time.
